Assays:
LeuT [1] = biological target: T1, LeuT (Aquifex aeolicus, UniProt O67854); experiment: displacement of [3H]leucine binding
LeuT [2] = biological target: T1, LeuT; experiment: direct radioligand binding
LeuT [3] = biological target: T1, LeuT; experiment: X-ray crystal structure, anomalous difference Fourier; type: binding; settings: primary substrate site
NCC(=O)O = experiment: purified protein; settings: transport
CC(C)C[C@H](N)C(=O)O = experiment: purified protein; settings: transport
CSCC[C@H](N)C(=O)O = experiment: purified protein; settings: transport
[4] = system: N[C@@H](Cc1ccc(O)cc1)C(=O)O; experiment: purified protein; settings: transport

Molecule: NCC(=O)O [Glycine]
- Ki (LeuT [1]): 322 µM

Molecule: CSCC[C@H](N)C(=O)O [Methionine]
- Kd (LeuT [2]): 0.069 ± 0.008 µM
- Ki (LeuT [1]): 0.232 ± 0.021 µM

Molecule: N[C@@H](Cc1ccc(O)cc1)C(=O)O [Tyrosine]
- Ki (LeuT [1]): 9.04 ± 0.55 µM

Molecule: C[Se]CC[C@H](N)C(=O)O [selenomethionine]
- X-ray crystal structure, anomalous difference Fourier (LeuT [3]): We also measured diffraction data on a LeuT-selenomethionine complex

Molecule: LeuT (Aquifex aeolicus VF5)
- Km (NCC(=O)O): 1.91 ± 0.03 µM
- Vmax (NCC(=O)O): 0.000444 µmol/min/mg
- kcat (NCC(=O)O): 0.000439 ± 5.56e-05 s⁻¹
- kcat/Km (NCC(=O)O): 222 M⁻¹ s⁻¹
- Km (CC(C)C[C@H](N)C(=O)O): 0.146 ± 0.025 µM
- Vmax (CC(C)C[C@H](N)C(=O)O): 0.000343 µmol/min/mg
- kcat (CC(C)C[C@H](N)C(=O)O): 0.000333 ± 5.56e-05 s⁻¹
- kcat/Km (CC(C)C[C@H](N)C(=O)O): 2280 M⁻¹ s⁻¹
- Km (CSCC[C@H](N)C(=O)O): 0.289 ± 0.027 µM
- Vmax (CSCC[C@H](N)C(=O)O): 0.000523 µmol/min/mg
- kcat (CSCC[C@H](N)C(=O)O): 0.000517 ± 1.11e-05 s⁻¹
- kcat/Km (CSCC[C@H](N)C(=O)O): 1780 M⁻¹ s⁻¹
- Km [4]: 2.83 ± 0.15 µM
- Vmax [4]: 0.000209 µmol/min/mg
- kcat [4]: 0.000206 ± 1.39e-05 s⁻¹
- kcat/Km [4]: 83.3 M⁻¹ s⁻¹

— PMC2832577 (Science (New York, N.Y.), 2008)
